Reference: the DeepSol protein solubility set

Experiment: soluble on expression in E. coli; label from the status in PepcDB or PDB records

Sequence	soluble on expression in E. coli
SAGLGANSDVMVKLDDGHLNNSLRSPVQAGVYFRGHIKGGMRPGKKVLVMGIVDHNPKSFAISLTCGDSEDPPADVAIELKVVFTNQQVFRNSCISGESDEENLAFPYFPFVPDQPFRMEIFCQQPCFRVLVDGHHLFDFYHRIQTLSAIDSIKISGDLQITKLG	soluble
MGALERFGVDFITVDQGNGQWDIQAIEINLRKGGTTHPFMTLKLLTNGRYELSTGLFYSQQGRPKYYIATDNLQKDRYRGLLPNDLMDIIAHHRLHFDSCTETGTVFHLMGCLSQFGKLGLTSIGDSPQQAEDIYNKVVKVLDEETRVNNKQFPLFSDYTFPNLEHHHHHH	not soluble
MAYDLAVPGPIMQEVAQYLASLSGKAVVINIFAGHADRSLSQTQLAELLDKLLARHPGSAVILLDHRREIRIPLPPEVVINPFNTLHHAMALIAQAELIISPDTSVVHMAAAWNKPLIAVYKDVLLNNRLWAPGYDNARQIIVKCGKVHQHRGLVDRIIAALPETLLEHHHHHH	not soluble
MYKVDSPDAVDFINHQEIIETLEYARTHRNDRELIRNLIEKARLCKGLTHREAAILLECAEEDLTKEIFHLAKEIKQKFYGNRIVMFAPLYLSNYCVNGCVYCPYHLKNKTIIRKKLTQEEICREVIALQDMGHKRLALEAGEDPVRNSIDYILESIRTIYSIHHKNGAIRRVNVNIAATTVENYRKLKDAGIGTYILFQETYHKENYEQLHPTGPKSNYAYHTEAMDRAMQGGIDDVGMGVLFGLNTYRYDFVGLLMHAEHLEAVYGVGPHTISVPRICSADDINAEDFENAISDEIFQKIVAVIRISVPYTGMIISTRESQKTREKVLDLGISQISGGSRTSVGGYAEAETPEENSAQFDVSDTRTLDEVVNWLLKLGYIPSFCTACYRAGRTGDRFMSLVKSGQIANCCSPNALITLQEYLEDYASEETKARGVAMIKQEMQHIPNPKIRERALENLKQIAAGERDFRF	not soluble
MSTSQTKNVSIDTIKEFMYQVLLKVGSDEENARMVRDTLIAADLRGMDTHGIQRFKTVYIDRIKKGMINPTAKPSIIRETSTTCVLDGNNGFGHVNGTIGMKMAIEKAKKYGMGMVVVRNSTHFGIAGYYSLLAAQEGCIGICGTNARSSVAATFGDEPILGTNPLAIGIPSDEAFPYCFDGATSISPTGRFEKYVRMGKTVDKSWASMKGGKPIEDPKELLENYPKGKAYLHPLGGSDEVSGSHKGYCLSEFVEIMSSCLSIANFLNHIEEEKEKSGKFSLGHFFIAINVECFRDLNEFKKNVGDINRTLRNTDKLPGHDRIYTAGEKEYETEQKRRKFGDDLPLVTINEMKELSSFYNVPLPF	soluble
QTMGGDDVKVVQYNQEKLVQTRMSVADNGWIYVMTHSGYDTGNSNVKIFRSKDQGATYQKLRDWDPSDDYQFQDFDIVVTGKNESDIKIWSVELMNKPGGYKSRVAVFSRDANAQNAKLVYKEDFSNVQLYDVDIASNYRSPSSLNNGGNPFALAFAYTGFNNTHKISFVDYVFSLNGGQNFNKNLLFSQDGEKKIDKVDLSLGSTSESMGHNAWPLMGVVFEMNKQGGKSDIGFLSNFVDNDPEFQWSGPIKVSESDMSFSPKIQMLLDEDNNTINGESCHNFMITYSDYDSEYSDWDIRYVYPKKSFKYEKGKTPTMDDLVEAFLTASYQSETNSGLGYDKNANHYLITYAKKEENGTNTLKYRWANYDKIHNKDLWSDTFTYTSSANALYTPQVDINPTKGLVCWSWVEYLPGKRIVWSDTQWTHANGVEDIVMQEGSMKLYPNPAQE	not soluble
MGSDKIHHHHHHMIDSMTHRKLSKTAQPLSPTRPWHSTKATCYSAMLSTWSLSQKRLSISALILAITSTATWANEVKNQDIQAASKSNTCYVEGVSDRLNCGFVTVPENPNKPDGKQIQVHYVVLPAVKNANHEEALLAIAGGPGQSAIDNAAGFDAMLSKVRQQRDILLIDQRGTGRSNLLTCDESANPLSLDDDSIDPSAETQKCLDKIDADVSQYGSLNAVKDFEAVRAHLGYKKLHIYGISYGTRMAQLYMRLYPEQLATVTLDGVVPMQQSVLEIGSAIDRGFELLFKDCQENTVCKQQFPQLKAEFEQVANTLAKGAITENVFDPVTGEKNQLIITRGKFYGAIRMALYQTNVRALVPHAIHQAANNHFQPLLGLYALTVDNAGIAMGMHTSVVCGEDIHRITPAMREKAASSYVGQTMLDSMEKTCAIWKVPAVDNSFSEPISSNIPTLLLSGEIDPATPPSWGELAMEKLTNAKHFIAPYATHGVAYQSCANGLVADLVRTGSINDLDGECLNKDVRRSFYLNASSVEPLNATSTKTTTTNNNASTGAKE	not soluble
MQQKLENIKFVITDVDGVLTDGQLHYDANGEAIKSFHVRDGLGIKMLMDADIQVAVLSGRDSPILRRRIADLGIKLFFLGKLEKETACFDLMKQAGVTAEQTAYIGDDSVDLPAFAACGTSFAVADAPIYVKNAVDHVLSTHGGKGAFREMSDMILQAQGKSSVFDTAQGFLKSVKSMGQLEHHHHHH	soluble
MGLHYFLDHKKEDLYKSVQDVYKSDDRPWVVGFSGGKDSTVVVQIIFYALASMSKNELTKPVYIISSDTMVENPKILEHIDTQLLKMKKAANELELPIHVEKVMPNIKNTFWVNLIGRGYPAPRQKFRWCTDRLKIDPANNFILNKVSEFGETVVVLGVRKSESSTRAQVMNTHKVEGKILRRHTKLPNSYVYAPIEDFSLDDVWTYLMQVPNPWGADNADLLALYQDSQGECPLVIDNSTPSCGNSRFGCWVCTVVQEDKSLKGFIESGDEWLTPLLKFRNWLLENRDKEDYREKKRANGSVYLIGDEDNKRLGLGPYTLEHRKEILRKLLETEKQLQHPHQPKYELITIEELKEIRKIWFEKGDWEDSVLAIYEEVYGHRPNWDIEESKFLESEDIKLLKKLCHEEEVEFELVQKLVNLEFQHYGYKHRYGILKDINRILNEEWLHFDQLQQGDNYAD	not soluble
MPAHQLSDDRAIQGTFMRKRRDSLASVVARDLAGRIERGDYAVGDKIPIEAQLCEMYNVSRTVVREAIATLRSEGLVTSRHGVGVFVEERGNPALSITREAAGELSEVLELLELRLGVEVEAAGLAARRATAEDLRQIREVLEKTDDLEAFAEHRRELDYAFHLAIARASGNSWMPKFMDFIGPVIIPRSQLLHDPQSGITGDYLRQMVEEHRQIVEAIAAGEAAAAQEAMRMHLSTSLERYRRRLTDA	not soluble
TCGLRQYSQPQFRIKGGLFADIASHPWQAAIFAKHRRSPGERFLCGGILISSCWILSAAHCFQERFPPHHLTVILGRTYRVVPGEEEQKFEVEKYIVHKEFDDDTYDNDIALLQLKSDSSRCAQESSVVRTVCLPPADLQLPDWTECELSGYGKHEALSPFYSERLKEAHVRLYPSSRCTSQHLLNRTVTDNMLCAGDTRSGGPQANLHDACQGDSGGPLVCLNDGRMTLVGIISWGLGCGQKDVPGVYTKVTNYLDWIRDNMRP	soluble
MGHHHHHHSHMKIFKFTPENNLFYGYILEDMKTGFNILREIMVEGYRPSIARLYDAEDGTQHFTHFADGKCVLIFMAEGNPRIAKVTGEGIAEIVARYPQCQRVDSKLIETWFNNLNWGPDKVAAERVQILKTGNMGFTTEVSGCWSCIHEIYESVINRIRTEFPHADDITMLGGHSSHSYQNGTNMYFVYDYNVVDCKPEEEIDKYHNPLNKIICEETIRLGGSMVHHHGIGKHRVHWSKLEHGSAWALLEGLKKQFDPNGIMNTGTIYPIEK	not soluble
MSLIIDVLQHVPHEGPGLIANWARENQHQLKIHTLFEENEHVPKDSDFLIVLGGPMGINDTAEFPWLKDERKLIKRLSEQHKPVFGVCLGAQQIAATFGSEITVNKVKEVGWFPVKRTSDKLSFFPESLNVFHWHQDTFALPAGATRLFASEGCLNQAFLYGENIIGLQFHFEMEKAGIETILQIDEAFITPGKYVQSVEVMREKDVPEDNKQMLEAILDYLINPKTIEGHHHHHH	soluble
